{
  "source": "patent US7001748B2",
  "about": "“Methods of making polyketides using hybrid polyketide synthases” (The Board of Trustees of the Leland Stanford Junior …, priority 1999, dated 2006)",
  "key": {"module 2+TE": {"biological_target": "T1, module 2+TE (Saccharopolyspora erythraea, UniProt Q03131+Q03133)", "T1 construct": "a single module of the DEBS PKS fused to the thioesterase (TE) termination region of module 6; made in house; host or cells: E. coli BL21(DE3) co-expressing B. subtilis sfp", "details": "diffusive loading, shown earlier; cited from earlier work"}, "module 5+TE": {"biological_target": "T2, module 5+TE (Saccharopolyspora erythraea, UniProt Q03133)", "T2 construct": "a single module of the DEBS PKS fused to the thioesterase (TE) termination region of module 6; thioesterase (TE) domain of DEBS (end of the same DEBS3 polypeptide); made in house; host or cells: E. coli BL21(DE3) co-expressing B. subtilis sfp", "details": "diffusive loading, shown earlier; cited from earlier work"}, "module 6+TE": {"biological_target": "T3, module 6+TE (Saccharopolyspora erythraea, UniProt Q03133, DEL53-1503)", "T3 construct": "a single module of the DEBS PKS fused to the thioesterase (TE) termination region of module 6; made in house; host or cells: E. coli BL21(DE3) co-expressing B. subtilis sfp", "details": "diffusive loading, shown earlier; cited from earlier work"}, "[1]": {"test_system": "(5)M2+TE, (5)M5+TE, and (5)M6+TE", "details": "Wu et al. 2000; cited from earlier work"}, "(5)M3+TE": {"biological_target": "T4, (5)M3+TE (Saccharopolyspora erythraea, UniProt Q03132+Q03133)", "T4 construct": "(5)M3+TE: module 3 with N-terminal linker from module 5; N-terminal interpolypeptide linker of DEBS module 5 (start of DEBS3, Q03133); His6 (C); made in house; host or cells: E. coli BL21(DE3) co-expressing B. subtilis sfp", "details": "previously shown; cited from earlier work"}, "(3)M3+TE": {"biological_target": "T5, (3)M3+TE (Saccharopolyspora erythraea, UniProt Q03132+Q03133)", "T5 construct": "encodes module 3 of DEBS (M3) with its own N-terminal linker and with the thioesterase fused to the C-terminus; natural N-terminal interpolypeptide linker of module 3 (start of DEBS2, ahead of the Module 3 feature); His6 (C); made in house; host or cells: E. coli BL21(DE3) co-expressing B. subtilis sfp", "details": "previously shown; cited from earlier work"}, "[2]": {"test_system": "(5)M2+TE, (5)M5+TE, and (5)M6+TE", "assay": "Diketide incorporation, statements made for all three modules together", "format": "biochemical", "details": "control studies, data not shown", "experimental": "Qualitative Substrate Incorporation Assays. The reaction buffer for the diketide incorporation assays contained 400 mM NaH2PO4 (pH 7.2), 2.5 mM DTT, 1 mM ETDA, 20% glyercol (reaction buffer C). 1 μM module, 20 μM acyl-ACP, 500 μMDL-[2-^14C]-methylmalonyl CoA (ARC), and 4 mM NADPH (Sigma) were incubated in 20 μL of the reaction buffer at 30° C. for 1.5 h. The reactions were either spotted directly onto a TLC plate (Whatman 250 μM silica gel, UV254), or first extracted with EtOAc followed by spotting of the organic extracts on a TLC plate. The TLC plates were resolved using 60% EtOAc in hexanes, and the radioactive products were visualized on a Packard InstantImager.\nDetermination of kcat Values. […] To quench the reactions, 20 μL reaction aliquots were mixed with 80 μL of 12.5% SDS. kcat values for the acyl-ACP substrates were determined by measuring steady-state saturating rates at multiple substrate concentrations (varying from 40 to 90 μM 4). […]\nQualitative Assays of Diketide Incorporation by Acyl-ACPs. […] 2000, 122, 4847-4852 (It should be noted that elongation of 4c and 4d by modules 5+TE and 6+TE yielded minor quantities of unreduced triketide lactones, indicating less efficient β-ketoreductase activity on these two anti-diketide substrates than on the two syn-diketide substrates.). […]"}, "[3]": {"biological_target": "T6, M2 and M3+TE (Saccharopolyspora erythraea)", "T6 construct": "Plasmid pBP19 contains module 2 of DEBS (M2) and is a derivative of pRSG64; made in house; host or cells: E. coli BL21(DE3) co-expressing B. subtilis sfp", "assay": "Inhibition of tetraketide production by synthetic peptide, M2-M3 linker pair", "format": "biochemical", "details": "peptide 1 to 100 μM, 1.0 μM M2 and M3+TE", "experimental": "(§1) Inhibition of Tetraketide Production. The ability of the synthetic peptide to inhibit the transfer reaction, and thus the production of tetraketide, was tested under the same reaction conditions described for the two module coincubations. The concentrations of M2 and M3+TE were both 1.0 μM, and the concentrations of M2(4) and (5)M3+TE were 0.5 and 1.0 μM, respectively. The only difference was the addition of the peptide at concentrations ranging from 1 to 100 μM to the assay containing M2 and M3+TE [or alternatively M2(4) and (5)M3+TE]. For greater accuracy, each inhibition assay was performed side by side with a control lacking inhibitor. The effect of the inhibitor was thus determined by dividing the inhibited rate by the control rate."}, "M2(4) and (5)M3+TE": {"biological_target": "T7, M2(4) and (5)M3+TE (Saccharopolyspora erythraea, UniProt Q03131+Q03132)", "T7 construct": "Plasmid pST179 encodes a derivative of M2 containing the C-terminal linker of DEBS module 4 (M4); made in house; host or cells: E. coli BL21(DE3) co-expressing B. subtilis sfp", "assay": "Inhibition of tetraketide production by synthetic peptide, M4-M5 linker pair", "format": "biochemical", "details": "peptide concentrations up to 100 μM", "experimental": "as §1"}, "[4]": {"biological_target": "T8, individually assayed modules, including M3+TE (Saccharopolyspora erythraea, UniProt Q03132+Q03133)", "T8 construct": "encodes module 3 of DEBS (M3) with its own N-terminal linker and with the thioesterase fused to the C-terminus; natural N-terminal interpolypeptide linker of module 3 (start of DEBS2, ahead of the Module 3 feature); His6 (C); made in house; host or cells: E. coli BL21(DE3) co-expressing B. subtilis sfp", "assay": "Effect of synthetic peptide on individually assayed modules", "format": "biochemical", "experimental": "In Vitro Polyketide Production. Assays of individual modules contained 1.0 μM protein, 1-10 mM N-acetylcysteamine thioester of the “natural” (2S,3R)-2-methyl-3-hydroxypentanoic acid diketide (NDK) (1), 4 mM NADPH, 440 mM sodium phosphate, 1 mM EDTA, 2.5 mM dithiothreitol (DTT), and 20% w/v glycerol, pH 7.2, in 80 μL. Reactions with M2 or M2(4) included 0.3 mM ^14C-methylmalonyl-CoA (specific activity adjusted to 10.4 mCi/mmol), and those with M3+TE or (5)M3+TE included 0.5 mM ^14C-methylmalonyl-CoA (specific activity reduced to 1.1 mCi/mmol). [M2(4) refers to a derivative of M2 in which the C-terminal linker has been replaced with its counterpart from module 4, whereas (5)M3 refers to a derivative of M3 in which the N-terminal linker has been replaced with its counterpart from module 5 (see FIG. 4).] Both concentrations of methylmalonyl-CoA were saturating, but different concentrations were needed due to the disparate rates of turnover between the modules with and without the thioesterase. The reaction mixtures were preincubated to 30° C. and started with the addition of the methylmalonyl-CoA. […] Product formation was quantified by comparison with standards of the labeled methylmalonyl-CoA. […]"}, "[5]": {"assay": "CD spectroscopy of the M3 N-terminal peptide", "format": "physicochemical", "experimental": "CD Spectroscopy. The CD spectrum of the M3 N-terminal peptide was recorded in a 1-mm path-length cell at a sample concentration of 100 μM in phosphate-buffered saline (PBS; 0.15 M KCl, 25 mM phosphate, pH 6.9). Measurements were made using an Aviv 62DS spectropolarimeter. Concentration was determined by tyrosine absorbance at 275 nm in 8 M guanidine hydrochloride."}, "[6]": {"details": "listed as N-terminal linker of module 3"}, "[7]": {"details": "listed as synthetic peptide mimic of the N-terminal linker of M3"}},
  "data": [
    {"compound": "CCC(O)C(C)C(=O)SCCNC(C)=O", "note": "(stereo not drawn) [2a]", "values": [
      {"measurement": "kcat, NAC thioester substrate", "setting": "module 2+TE", "value": 0.0767, "unit": "s⁻¹"},
      {"measurement": "kcat (elongation rate constant), NAC thioester substrate", "setting": "module 5+TE", "value": 0.00417, "unit": "s⁻¹"},
      {"measurement": "kcat, NAC thioester substrate", "setting": "module 6+TE", "value": 0.283, "unit": "s⁻¹"},
      {"measurement": "incorporation of NAC thioester (qualitative)", "setting": "[1]", "value": "substrates for the three modules"},
      {"measurement": "incorporation of NAC thioester (qualitative)", "setting": "(5)M3+TE", "value": "readily incorporated and elongated"},
      {"measurement": "incorporation of NAC thioester (qualitative)", "setting": "(3)M3+TE", "value": "readily incorporated and elongated"}
    ]},
    {"compound": "CCC(O)C(C)C(=O)SCCNC(=O)CCNC(=O)C(O)C(C)(C)COP(=O)(O)OP(=O)(O)OCC1OC(n2cnc3c(N)ncnc32)C(O)C1OP(=O)(O)O", "note": "(stereo not drawn) [5a]", "values": [
      {"measurement": "CoA thioester compared with NAC thioester 2a as substrate", "setting": "[2]", "value": "approximately equivalent substrates"}
    ]},
    {"compound": "H2N-MTDSEKVAEYLRRATLDLRAARQRIRELESD-amide (H-MTDSEKVAEYLRRATLDLRAARQRIRELESD-NH2) [M3 N-term]", "values": [
      {"measurement": "inhibition of tetraketide lactone 2 formation", "setting": "[3]; [6]", "value": "could inhibit the formation of 2"},
      {"measurement": "inhibition of tetraketide lactone 2 formation", "setting": "[3]; listed as peptide corresponding to the N-terminal linker of module 3", "value": "shown to inhibit the formation of tetraketide lactone 2"},
      {"measurement": "inhibition of tetraketide lactone 2 formation", "setting": "[3]; [7]", "value": "lowered the overall rate of tetraketide production in a dose-dependent fashion"},
      {"measurement": "inhibition of tetraketide lactone 2 formation", "setting": "M2(4) and (5)M3+TE; [6]", "value": "No inhibitory effect"},
      {"measurement": "inhibition of tetraketide lactone 2 formation", "setting": "M2(4) and (5)M3+TE; [7]", "value": "no such effect"},
      {"measurement": "inhibitory effect upon individually assayed modules", "setting": "[4]", "value": "no inhibitory effect"},
      {"measurement": "helical content", "setting": "[5]; 100 μM in PBS pH 6.9, listed as N-terminal linker peptide of M3", "value": "approximately 50%"},
      {"measurement": "helical content", "setting": "[5]; 100 μM in PBS pH 6.9, listed as peptide mimic", "value": "ca. 50%"}
    ]}
  ]
}
